We go through one substance from patent publication EP1950297A2.

In this assay the target is GST-fusion protein containing amino acids 327-517 of KIAA0175 (human) (UniProt Q14680). The assay can be described thus: cell-based or functional assay.
Chain of UniProt Q14680 (Q14680 327-517 S391Q): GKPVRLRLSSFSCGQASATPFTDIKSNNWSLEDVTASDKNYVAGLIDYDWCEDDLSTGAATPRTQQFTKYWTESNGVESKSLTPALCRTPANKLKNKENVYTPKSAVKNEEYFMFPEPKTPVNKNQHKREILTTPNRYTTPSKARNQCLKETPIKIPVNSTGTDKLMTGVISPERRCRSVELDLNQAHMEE

In turn, “Ataxia telangiectasia mutated (ATM), immunoprecipitated from cells (from UniProt Q13315 2-3056) (enzyme)” came in with an increase in phosphorylation by ATM immunoprecipitated from gamma-irradiated cells of 2 to 3 fold.
